In patent US5187153A, “Methods of treatment using Alzheimer's amyloid polypeptide derivatives” (Scios Nova Inc., priority 1990, dated 1993):
Where no end group is shown, it is not given here.

Target: Trypsin (Homo sapiens, UniProt P07477)
Assay: Trypsin inhibition assay, release of p-nitroaniline from N-benzoyl-D-arginine-p-nitroaniline
Assay type: biochemical
Conditions: HPLC peaks of the purified inhibitor
Experimental: All 8 oligonucleotides encoding either the phoA or ompA fusions were mixed together and treated with ligase. […] The ligated constructs were then ligated into the NdeI-HindIII sites of the vector pTRP233. The ligated vectors were transfected into E. coli strain MC1061 and Amp^R colonies selected. […] Miniprep DNA was used to transfect strains W3110 and JE5505. Small scale cultures of each of the three strains were grown and induced with IAA overnight. Culture supernatants were examined for trypsin inhibitory activity. Trypsin is assayed for its ability to hydrolyze the synthetic substrate N-benzoyl-D-arginine-p-nitroaniline to release p-nitroaniline (pNA). The release of pNA as a function of time is easily monitored in a spectrophotomer and can be quantitated to measure trypsin activity. The inhibitor is detected in this assay by virtue of its ability to bind to trypsin and prevent hydrolysis of the substrate by trypsin. Inhibitory activity was detected in the culture medium for both ompA and phoA constructs in JE5505 but not W3110 or MC1061. Expression levels appeared to be higher with the phoA construct and so only this construct was used for subsequent experiments.

peak 4: major HPLC peak of the purified inhibitor; full length A4i with 3 disulfide bridges (EVCSEQAETGPCRAMISRWYFDVTEGKCAPFFYGGCGGNRNNFDTEEYCMAVCGSAM; disulfide (positions not given here); UniProt P05067 289-345, looked up, fragment)
activity in the trypsin inhibition assay: active
